In article doi:10.1101/2022.01.07.475460 one finds enrichment in condensates (partition coefficient) data, which are given here for 1 substance.

The assay deals with Recombinant Xenopus laevis Chromosomal Passenger Complex (INCENP, Aurora B 33-368, Survivin-B, Borealin/Dasra-A) (Xenopus laevis) (UniProt Q6GPL3). As to the kind of experiment: partitioning into condensates.
UniProt Q6GPL3, sequence (Q6GPL3 whole entry, looked up, tested part not stated, one chain of several): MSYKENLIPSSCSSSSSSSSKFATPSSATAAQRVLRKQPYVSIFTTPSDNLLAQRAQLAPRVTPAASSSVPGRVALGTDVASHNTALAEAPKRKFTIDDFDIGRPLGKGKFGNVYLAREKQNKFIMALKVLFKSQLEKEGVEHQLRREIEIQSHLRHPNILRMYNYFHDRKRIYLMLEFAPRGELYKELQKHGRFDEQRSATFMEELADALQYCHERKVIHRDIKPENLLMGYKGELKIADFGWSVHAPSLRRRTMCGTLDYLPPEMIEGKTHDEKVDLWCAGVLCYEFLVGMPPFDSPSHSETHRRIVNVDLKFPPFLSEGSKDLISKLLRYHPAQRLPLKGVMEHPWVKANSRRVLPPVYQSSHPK

Turning to “α/β-tubulin dimers (from UniProt Q6B856 1-445) (complex)”, the enrichment in condensates (partition coefficient) worked out at 5 fold.
